Experimental findings from patent US20140241984A1 are described below.

In assay [1] the target is α-synuclein fibrils (human), P37840. Kind of assay: SPR, BIAcore X100; fibrils immobilised on CM5, mAb injected at 0.01-10 nM. To be noted: remark: other sources report otherwise.
Assay [2] has the same target. Kind of assay: inhibition ELISA; fibrils against monomers. Particulars: remark: other sources report otherwise.

B1: Syn-F1 (antibody, V domains shown)
VH: DVQLVESGGDLVQPGGSRKLSCAASGFTFSSFGMHWVRQAPEKGLEWVAYINSGSSTIYYADTVKGRFTISRDNPKNTLFLQMTSLRSEDTAMYYCARGNNPGTGYYYSMDYWGQGTSVTVSS
VL: not shown
On to B1, for which, in assay [1], the equilibrium dissociation constant (Kd) is 127 pM, the koff came out at 0.00156 s⁻¹ and the on-rate constant (kon) is 1.23e+07 M⁻¹ s⁻¹. This molecule yielded a Fold Affinity to Fibrils in assay [2] of 16600 fold.

B2: Syn-F2 (antibody, IgG2a, V domains shown)
VH: DVQLVESGGGLVQPGGSRKLSCAASGFTFSSFGMHWVRQAPEKGLEWVAYISSGSSTIYYADTVKGRFTISRDNPKNTLFLQMTSLRSEDTAMYYCARGNNPGTGYYYAMDYWGQGTSVTVSS
VL: not shown
Turning to B2, in assay [1], the Kd turned out to be 2690 pM, the dissociation rate constant (koff) turned out to be 0.00338 s⁻¹ and the kon was 1.26e+06 M⁻¹ s⁻¹. In assay [2], this molecule came in with a Fold Affinity to Fibrils of 3140 fold.

B3: Syn-O1 (antibody, IgG2b, V domains shown)
VH: EVQLVESGGGLVQPKGSLKLSCAASGFTFNTYAMHWVRQAPGKGLEWVARIRSKSSNYATYYADSVKDRFTISRDDSQSMLYLQMNNLKTEDTAMYYCVRPLKWYFDVWGTGTTVTVSS
VL: QIVLTQSPAILSASPGEKVTMTCSASSTVNYMHWYQQKSGTSPKIWIYDTSKLASGVPARFSGSGSWTSYSLTISSMEAEDAATYYCQQWNSNPPTFGAGTKLELK
With B3, in assay [1], the Kd was determined as 16 pM, the koff came to 9.36e-05 s⁻¹ and the kon stood at 5.86e+06 M⁻¹ s⁻¹. In assay [2], this molecule registered a Fold Affinity to Fibrils of 12700 fold.

B4: Syn-O4 (antibody, IgG1, V domains shown)
VH: EVQLVESGGGLVQPKGSLKLSCAASGFTFNTYAMHWVRQAPGKGLEWVARIRSKSSNYATYYADSVKDRFTISRDDSQSMLYLQMNNLKTEDTAMYYCVRPLKWYFDVWGTGTTVTVSS
VL: QIVLTQSPAILSASPGEKVTMTCSASSTVNYMHWYQQKSGTSPKIWIYDTSKLASGVPARFSGSGSWTSYSLTISSMEAEDAATYYCQQWNSNPPTFGAGTKLELK
In assay [1], B4 registered a Kd of 138 pM, a koff of 0.000996 s⁻¹ and an association rate constant (kon) of 7.24e+06 M⁻¹ s⁻¹. Also, the Fold Affinity to Fibrils in assay [2] turned out to be 6930 fold.

B5: Syn-O2 (antibody, IgG1, V domains shown)
VH: EVQLVESGGGLVQPKGSLKLSCAASGFTFNTYAMHWVRQAPGKGLEWVARIRSKSSNYATYYADSVKDRFTISRDDSQSMLYLQMNNLKTEDTAMYYCVRPLKWYFDVWGTGTTVTVSS
VL: QIVLTQSPAILSASPGEKVTMTCSASSTVNYMHWYQQKSGTSPKIWIYDTSKLASGVPARFSGSGSWTSYSLTISSMEAEDAATYYCQQWNSNPPTFGAGTKLELK
In assay [1], B5 yielded a dissociation constant (Kd) of 96.9 pM, a koff of 0.00127 s⁻¹ and an on-rate (kon) of 1.31e+07 M⁻¹ s⁻¹. Moreover, in assay [2], the Fold Affinity to Fibrils is 27300 fold.

B6: Syn-O3 (antibody, IgG1, V domains shown)
VH: EVQLVESGGGLVQPKGSLKLSCAASGFTFNTYAMHWVRQAPGKGLEWVARIRSKSSNYATYYADSVKDRFTISRDDSQSMLYLQMNNLKTEDTAMYYCVRPLKWYFDVWGTGTTVTVSS
VL: QIVLTQSPAILSASPGEKVTMTCSASSTVNYMHWYQQKSGTSPKIWIYDTSKLASGVPARFSGSGSWTSYSLTISSMEAEDAATYYCQQWNSNPPTFGAGTKLELK
In the case of B6, in assay [1], the Kd came out at 171 pM, the off-rate constant (koff) was determined as 0.000379 s⁻¹ and the kon came to 2.22e+06 M⁻¹ s⁻¹. In assay [2], this molecule returned a Fold Affinity to Fibrils of 11100 fold.
